Measured values published in doi:10.1101/2021.04.27.441718.

What was measured:
RbpB [1] = target: T1, RbpB (Bacteroides thetaiotaomicron VPI-5482, UniProt Q8A6J4 1-100); test: EMSA
T1 sequence: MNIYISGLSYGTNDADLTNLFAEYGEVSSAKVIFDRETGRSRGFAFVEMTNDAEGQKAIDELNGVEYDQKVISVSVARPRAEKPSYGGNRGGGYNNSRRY

RbpB [2] = target: T1, RbpB; test: EMSA; remark: listed apart in the source

Row | Binder | binding result (RbpB [1]) | Kd (RbpB [2])
1 | UCCUGUGCUCCUGUGCUCCUGUGC (ssRNA) [Motif 9 x3] | no binding | –
2 | GUAGGAUAGUAGGAUAGUAGGAUA (ssRNA) [Motif 1 x3] | – | 5.1 µM
